# Numbering of substitutions follows the chain as printed.
# B1: 5G9: anti-CDCP1 murine monoclonal antibody (hybridoma); VH SEQ ID NO: 241, VL SEQ ID NO: 292 (antibody, V domains shown)
# VH: EVQLQQSGTVLARPGASVKMSCKASGYIFLNYWMHWVKQRPGQGLEWIGGIYPGNTDTTYNQKFKGKAKVTAVTSATTAYMELSSLTNEDSAVYYCIRYDYDRGMDYWGQGTTVTVSS
# VL: DIVMTQAPAIMSASPGEKVTISCSASSSVSYIYWYQQKPGSSPKPWIYRTSNLASGVPARFSGSGSGTSYSLTISSMEAEDAATYYCQQYHSYPYTFGGGTKLEIK
# modifications: 5G9 heavy chain variable region; 5G9 light chain variable region
# B2: 1CP-066: anti-CDCP1 murine monoclonal antibody (hybridoma); VH SEQ ID NO: 268, VL SEQ ID NO: 318 (antibody, V domains shown)
# VH: EVTLKESGPELKKPGETVKISCKASGYAFTKYGMNWVKQAPGKDLKFMGWINTYTGEATYADDFKGRFDFSLEASASTAFLRINNLKNEDTATYFCSRGDDYGTGGYVLFYWGQGTTVTVSS
# VL: DIVMTQAAASLSVTVGETVTITCRASENIYNNLAWYQQQQGKSPQLLVYAATNLADGVPSRFSGSGSGTHYSLKINSLQSEDFGFYYCQHFWGTPPTFGGGTKLEIK
# modifications: 1CP-066 heavy chain variable region; 1CP-066 light chain variable region
# B3: 1CP-063: anti-CDCP1 murine monoclonal antibody (hybridoma); VH SEQ ID NO: 263, VL SEQ ID NO: 313 (antibody, V domains shown)
# VH: EVNLKESGPELVKPGASVRISCKASGYTFTSYYIHWVKQRPGQGLEWIGWIYPGNVNSKYNEKFKGKVTLTADKSSITAYMQLSSLTSEDSAVYFCAREDYGHYYAMDYWGQGTTVTVSS
# VL: DIVMTQSPSSMYASLGERVTITCKASQDIKSYLSWYQQKPWKSPKTLIYYATSLADGVPSRFSGSGSGQDYSLTISSLESDDTATYYCLQYGESPWTFGGGTKLEIK
# modifications: 1CP-063 heavy chain variable region; 1CP-063 light chain variable region
# B4: 1CP-067: anti-CDCP1 murine monoclonal antibody (hybridoma); VH SEQ ID NO: 265, VL SEQ ID NO: 315 (antibody, V domains shown)
# VH: EVQLKESGGGLVKPGGSLKLSCTASGFTFSVYGMSWVRQTPEKRLEWVATLSGGSNYTYYSDSVKGRFTISRDTGKNNLYLQMSSLSSDDTALYYCATEDGLIGTWGDYWGQGTTVTVSS
# VL: DIVMTQAAFSNPVTLGTSASISCRSTKSLLHSNGITYLYWFLQKPGQSPQLLIYQMSNLASGVPDRFSSSGSGTDFTLRISRVEAEDVGVYYCAQNLELPFTFGGGTKLEIK
# modifications: 1CP-067 heavy chain variable region; 1CP-067 light chain variable region
# B5: 1CP-069: anti-CDCP1 murine monoclonal antibody (hybridoma); VH SEQ ID NO: 266, VL SEQ ID NO: 316 (antibody, V domains shown)
# VH: B4 VH with K5Q, E6Q, S55D, S61T, G75A, S87R, D89E, Y95F
# VL: B4 VL with F41Y
# modifications: 1CP-069 heavy chain variable region; 1CP-069 light chain variable region
# B6: 1CP-061: anti-CDCP1 murine monoclonal antibody (hybridoma); VH SEQ ID NO: 262, VL SEQ ID NO: 312 (antibody, V domains shown)
# VH: EVQLKESGAELVRPGASVKLSCKASGYTFTSYWINWVRQRPGQGLEWIGNIYPSDSYTNYNQKFKDKATLTVDKSSSTAYMQLSSPTSEDSAVYYCTRCLRRRDWYFDVWGQGTTVTVSS
# VL: DVVMTQTPASLAVSLGQRATISCRASESVDYSGYSFMHWYQQKPGQPPKLLIYRASNLESGIPARFSGSGSRTDFTLTINPVEADDVATYYCQQSNEDPYTFGGGTKLEIK
# modifications: 1CP-061 heavy chain variable region; 1CP-061 light chain variable region
# B7: 1CP-062: anti-CDCP1 murine monoclonal antibody (hybridoma); VH SEQ ID NO: 264, VL SEQ ID NO: 314 (antibody, V domains shown)
# VH: EVKLVESGPGLVAPSQSLSITCTVSGFSLTTYGVHWVRQPPGKGLEWLVVIWSDGNTTYNSALKSRLSINKDNSKSQVFLKMNSLQTDDTAMYYCAKNYRNYDYAMDYWGQGTTVTVSS
# VL: B6 VL with V2I, Y31S, S32Y, Y34N
# modifications: 1CP-062 heavy chain variable region; 1CP-062 light chain variable region
# B8: 1CP-064: anti-CDCP1 murine monoclonal antibody (hybridoma); VH SEQ ID NO: 267, VL SEQ ID NO: 317 (antibody, V domains shown)
# VH: EVKLVESGPGILQPSQTLSLTCSFSGFSLSTSGMGVGWIRQPSGKGLEWLAHIWWDDVKRYNPALKSRLTISKDTSSSQVFLKIASVDTADTATYYCARMGGKVPWFAYWGQGTTVTVSS
# VL: B6 VL with Y31S, S32Y, Y34N, R54L, I62V, N80D, V87A, S95N, Y100W
# modifications: 1CP-064 heavy chain variable region; 1CP-064 light chain variable region
# B9: 3F1A11: anti-CDCP1 murine monoclonal antibody (hybridoma); VH SEQ ID NO: 245, VL SEQ ID NO: 296 (antibody, V domains shown)
# VH: EVKLVESGPGLVKPSQSLSLTCTVTGYSITSDYAWNWIRQFPGNKLEWMGYISYNTYTSYNPSLKSRISVTRDTSKNQFFLQLKSVTIEDTATYFCAGGDYYGTGAVDYWGQGTTVTVSS
# VL: EIVLTQSPLSLPVSLGDQASISCRSRQTLVHTNGNTYLDWYLQKPGQSPKLLIYKVSIRFSGVPDRFSGSRSGTDFTLKISRVEAEDLGIYYCFQGSHVPWTFGGGTKLEIK
# modifications: 3F1A11 heavy chain variable region; 3F1A11/3F1A11-H-12 light chain variable region
# B10: 3F1A11-H-12: anti-CDCP1 murine monoclonal antibody (hybridoma); VH SEQ ID NO: 248, VL SEQ ID NO: 296 (antibody, V domains shown)
# VH: EVKLVESGPGLVKPSQSLSLTCSVTGYSITSGYYWNWIRQFPGNKLDWMGYITYDDSHYYNPSLKDRLSITRDTSKNQFFLKLNSVTAEDTATYFCARGNYYANYPHAMDYWGQGTTVTVSS
# VL: B9 VL
# modifications: 3F1A11-H-12 heavy chain variable region; 3F1A11/3F1A11-H-12 light chain variable region
# B11: 1CP-065: anti-CDCP1 murine monoclonal antibody (hybridoma); VH SEQ ID NO: 269, VL SEQ ID NO: 319 (antibody, V domains shown)
# VH: EVTLKESGAELVRPGALVKLSCKASGFNIKDYYMHWVKQRPEQGLEWIGWIDPENDNTIYDPKFQGKASITADTSSNTAYLQLSSLTSEDTAVYYCARFYGSYYYAMDYWGQGTTVTVSS
# VL: DIVMTQSPKFMSTSVGDRVSITCKASQDVSTAVTWYQQKPGQSPKLLIYWASTRHTGVPDRFTGSGSGTDYTLTISSVQAEDLALYYCQQHYSTPYTFGGGTKLEIK
# modifications: 1CP-065 heavy chain variable region; 1CP-065 light chain variable region
# System: MDA-MB-231 cells
# Experiment: Endocytosis capacity of murine monoclonal antibody (flow cytometry internalization)
# Assay type: cell-based, human
# Details: MDA-MB-231, 0.5 h at 37° C., antibody 1.5 μg/mL
# Experimental: (§1) The endocytosis capacity of the antibody was detected for 0.5 to 2 hours. MDA-MB-231 and PC3 cells were subjected to digestion with 5 mM EDTA, and plated at 4×10^4 cells/well after cell counting. After adding an Fc blocker (Human TruStain FcX™, Biolegend, 422302) and blocking at room temperature for 10 mins, a test antibody (1.5 μg/mL) was added, and the mixture was incubated at 4° C. for 30 mins, centrifuged, and washed twice with PBS+2% FBS, then the cells were divided into four equal portions (labeled as 0 h, 0.5 h, 1 h, 2 h), cells labeled as 0.5 h, 1 h, 2 h time points were added to a cell culture medium at 200 µL/well, and cultured at 37° C. for 0.5 h, 1 h, 2 h, respectively. Cells at 0 h point were centrifuged to remove supernatant, a secondary antibody (PE anti-human IgG Fc Antibody, Biolegend, 410708) was added, and the mixture was incubated at 4° C. for 30 mins, centrifuged, and washed twice with PBS+2% FBS, and detection was performed using a flow cytometer. After incubation of cells labeled as 0.5 h, 1 h, and 2 h points at 37° C. was completed, a secondary antibody was added (in the same steps as those at 0 h point), Geo-MFI of the signal under the same voltage was collected as detection signal at 0 h, and antibody internalization rate was calculated according to the following equation: Internalization (%)=(Geo-MFI (0 h)-Geo-MFI (0.5, 1, 2 h))/Geo-MFI (0 h)×100%.
row,Molecule,Internalization MDA-MB-231 (%) 0.5 h [%]
1,B1,0.00

# Same assay, conditions: MDA-MB-231, 1 h at 37° C., antibody 1.5 μg/mL
row,Molecule,Internalization MDA-MB-231 (%) 1 h [%]
1,B1,0.00

# Same assay, conditions: MDA-MB-231, 2 h at 37° C., antibody 1.5 μg/mL
row,Molecule,Internalization MDA-MB-231 (%) 2 h [%]
1,B2,55.57
2,B1,0.00
3,B3,49.71
4,B4,69.09
5,B5,73.58
6,B6,42.68
7,B7,59.61
8,B8,93.43
9,B9,38.10
10,B10,37.57
11,B11,52.89

# System: PC3 cells
# Experiment: as above
# Assay type: cell-based, human
# Details: PC3, 0.5 h at 37° C., antibody 1.5 μg/mL
# Experimental: as §1
row,Molecule,Internalization PC3 (%) 0.5 h [%]
1,B1,0.00

# Same assay, conditions: PC3, 1 h at 37° C., antibody 1.5 μg/mL
row,Molecule,Internalization PC3 (%) 1 h [%]
1,B1,0.00

# Same assay, conditions: PC3, 2 h at 37° C., antibody 1.5 μg/mL
row,Molecule,Internalization PC3 (%) 2 h [%]
1,B2,33.21
2,B1,0.00
3,B3,62.68
4,B4,72.66
5,B5,73.92
6,B6,28.00
7,B7,66.74
8,B8,93.05
9,B9,51.76
10,B10,33.83
11,B11,68.71

# From patent publication US20260250410A1, “ANTIBODY AND USE THEREOF” (SICHUAN HUIYU PHARMACEUTICAL CO., LTD., priority 2022, published 2026)
